The values that follow come from the nanobody polyreactivity screen of Harvey et al. (2022).

The data set is described as follows: yeast display, Sf9 membrane polyspecificity reagent, FACS + sequencing; frameworks hold sequencing errors. In a few lines: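 Galactose induction of a Saccharomyces cerevisiae BJ5465 synthetic nanobody display library ran 36–48 hours. The cells were then stained for 1 hour at 4 °C with 10% biotinylated, detergent-solubilized Sf9 membrane reagent, pulled down on streptavidin microbeads and FACS-sorted into low and high (top ~1%) gates on expression and reagent-binding fluorescence. Labels for polyreactivity follow the gate of origin.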
For “QVQLVESGGGLVQAGGSLRLCCAASGNIFAYYAMGWYRQPPAKERELVAGISRRGGNTYYADSVKGRFTISRDNAKNTVYLQMNSLKPEDTAVYYCAAITYSGQRFDYWGQGTQVTVSS”, the “polyreactivity (PSR sort gate)” value was “high polyreactivity”. For the sequence “QVQLVESGGGLVQAGGSLRLCCAASGSIFKYNAMGWYRQAPGKERELVAAITWSGGSTYYADSVKGRFTISRDNAKNTVYLQMNSLKPEDTAVYYCAAVYYYASRTSKQPYYHWGQGTQVSVSS”, the “polyreactivity (PSR sort gate)” value is on record as “high polyreactivity”. The value for “QVQLVESGGGLVQAGGSLRLCCAASGSNFRRNAMGLYRQAPGKERELVAAMSWTSTRTYYADSVKVRFTISRDNAKNTVYLQMNSLKPEDTAVYYCAADSNGGGFQLYSYDSGLYYWGQGTQVTVSS” was “high polyreactivity”; that for “QVQLVESGGGLVQAGGSLRLCCASSGSTFTYNTMGWYRQAPGKERELVAAISFSSGRTYYADSVKVRFTISRYNAINTVYLHINSLKPEDTAVYYCNARTWETLRGYDYWGQGTQVTVSS” was “high polyreactivity”; that for “QVQLVESGGGLVQAGGSLRLICAASGFIFFGNALGWYRQAPGKERELVAVITWSGGSTYADSVKGRFTISRDNAKNTVYLLMNSLKPEDTAVYYCAFVTPYWSFYEQVIPSNYWGQGTQVTVSS” was “low polyreactivity”. The value for “QVQLVESGGGLVQAGGSLRLICAASGFIFFINDMGWYRQAPGKERELVAAISWSCGSTYYADSVKGRFTISRDNAKNTVYLQMNSLKPEDTAVYYCNTDVPTAQYDYWGQGTQVTVSS” was “low polyreactivity”; that for “QVQLVESGGGLVQAGGSLRLICAASGFIFLVNAMGWYRQAPGKERELVAAISLSTTSTYYADSVKGRFTISRDNAKNTVYLQMNSLKPEDTAVYYCAADHWGVGAPTYGQYTTHDYWGQGTQVTVSS” was “low polyreactivity”. The value for “QVQLVESGGGLVQAGGSLRLICAASGFTFADNSMAWYRQAPGKEREFVASITYSTGSTYADSEKGRVTISRDNAKNTVYLEMHSLKPEDTAVYYCAVDNISNWAVENDDWGQGTLVTVSS” was “low polyreactivity”; that for “QVQLVESGGGLVQAGGSLRLICAASGFTFCLYAMGWYRQAPGKERELVADIDWDGGTYYADSVKGRFTISRDNAKNTVYLQMNSLKPEDTAVYYCAAELTEWTNGFDYWGQGTQETVSS” was “high polyreactivity”; that for “QVQLVESGGGLVQAGGSLRLICAASGFTFDFYAMGWYRQAPGKERELVATISYSGASTYYADSVKGRFTISRDNAKNTVYLEMNSLKPEVTAVYYCAAYYPTRYQYGTIWVAYNYWGQGTQVTVSS” was “low polyreactivity”. Consider “QVQLVESGGGLVQAGGSLRLICAASGFTFGPYDMGGYRQAPGKERELVAAITDSSGSTHYADSVKGRFTISRDNAKNTVYLQMNSLKPEDTAVYYCAASDVVFALNGYYPGEDDYWGQGTQVTVSS”, for which the “polyreactivity (PSR sort gate)” value is recorded as “low polyreactivity”. “QVQLVESGGGLVQAGGSLRLICAASGFTFPSYAMGWYRQAPGKEREFVAGITKGGGNTYYADSVKGRFTISRDNAKNTVYLQMNSLIPEDTAVYYCAADRSSFYWSHGTVYGYDYWGQGTQVTVSS”: the “polyreactivity (PSR sort gate)” value was “low polyreactivity”.

Regarding “QVQLVESGGGLVQAGGSLRLICAASGFTFPWNVMGWYRQAPGKERELVAAITYDGGGTYADSVKGRFTISRDNAKNTVYLQMNSLKPEDTAVYYCNADLIYGEEYDYWGQGTQVTVSS”, the “polyreactivity (PSR sort gate)” value was “low polyreactivity”. Then “QVQLVESGGGLVQAGGSLRLICAASGFTFPWYAMGWYRQAPGKERELVATITSGGRTNYADSVKGRFTISRDNAKNTVYLQMNSLKPEDTAVYYCAARASKYSYRTDPWHGDYWGQGTQVTVSS”, with “high polyreactivity”; and “QVQLVESGGGLVQAGGSLRLICAASGFTFSYYAMGWSRQAPGKERELVAANSWSGTSTYYADSVKGRFTISRDNAKNTVYLQMNSLKPEDTAVYYCAAGYSASRKVDYRGQGTQVTVSS”, with “high polyreactivity”. The value for “QVQLVESGGGLVQAGGSLRLICAASGGIFNYYAMGWYREAPGKERELVAAISASGGSTYYADSVKGRFTISRDNAKNTVYLQMNSLKPEDTAVYYCAAGLPYGYGYDYWGQGTQVTVSS” was “low polyreactivity”.

Take “QVQLVESGGGLVQAGGSLRLICAASGGIFTRNDMGWYRQAPGKERELVAGISWRGGSTYYADSVKGRFTISRDNAKNTVYLQMNSLKPEDTAVYYCAALDTGGERDYWGQGTQVNVSS”: the “polyreactivity (PSR sort gate)” value is on record as “low polyreactivity”.

Consider “QVQLVESGGGLVQAGGSLRLICAASGGIFVYYAMGWYRQAPGKERELVAAISSGGTTNYADSVKGRFTISRDNAKNTVYLQMNSLKPEDTAVYYCAIYVSWPLYYYWGQCTQVTVSS”, for which the “polyreactivity (PSR sort gate)” value is on record as “low polyreactivity”. The value for “QVQLVESGGGLVQAGGSLRLICAASGGTFWIYAMGWYRQAPGKERELVAGITTSGATTYYADSVKGRFTISRDNAKNTVYLQMNSLKPEDTAVYYCAADEYYRYEYWGQGTQVTVSS” was “low polyreactivity”.

For “QVQLVESGGGLVQAGGSLRLICAASGIIFSDYAMGWYRQAPGKERELVAAITGGGSTYYADSVKGRFTISRDNAKNTVYLQMNSLKPEDTAVYYCNADTWGFTYYYWGQGTQVTVSS”, the “polyreactivity (PSR sort gate)” value is “low polyreactivity”. “QVQLVESGGGLVQAGGSLRLICAASGIIFWAYDMGWYRQAPGKERELVAAITWGGGSTYYADSVKGRFTISRDNAKNTVYLQMNSLKPEDTAVYYCAADRYVFQGYGPEVDYWGQGTQVTVSS”: the “polyreactivity (PSR sort gate)” value is “low polyreactivity”. In the case of “QVQLVESGGGLVQAGGSLRLICAASGITFRRYGMGWYRQAPGKERELVATITSSVGSRTYYADSVKGRLTISRDNAKNTVYLQMNSLKPEDTAVYYCAADHRVYDYEYWGQGTQVTVSS”, the “polyreactivity (PSR sort gate)” value is “low polyreactivity”.

On to “QVQLVESGGGLVQAGGSLRLICAASGLIFYKYAMGWYRQAPGKERELVAAITSGGSTNYADSVKGRFTISRDNAKNSVYLQMNSLKPEVTAVYYCNADYNHYLVVRWWYPPVDYWGQGSQVTVSS”, for which the “polyreactivity (PSR sort gate)” value was “low polyreactivity”. The value for “QVQLVESGGGLVQAGGSLRLICAASGLILKNYAMGWYRQAPGKERELVAAITRSGGSTYYADSVKGRFTISRDNAKNTVYLQMNSLKPEDTAVYDCAARNPSGKGRYDYWGQGTQVTVSS” was “high polyreactivity”; that for “QVQLVESGGGLVQAGGSLRLICAASGLTFGSYAMGWYRQAPGKERELVAAISRSGGSTYYADSVKGRFTISRDNAKNTVYLQMNSLKPEDTAVYYCNAVNPYYAPTDRRVGYDYWGQGTQVTVSS” was “high polyreactivity”. For the sequence “QVQLVESGGGLVQAGGSLRLICAASGLTFLNNAMGSYRQAPGKERELVAAISDGGSTNYADSVKGRFTISRDNAKNTVYLQMNSLKAEDTAVYYCAAVYTSASSGSWGQGTQVTVSS”, the “polyreactivity (PSR sort gate)” value was “low polyreactivity”. Then “QVQLVESGGGLVQAGGSLRLICAASGLTFPTYAMAWYRQAPGKERELVAAISRIGGRTYYADSVKGRFTISRDNAKNTVYLQMNSLKPEETAVYYCAADGIKGGVEYDYWGQGTQVTVSS”, with “high polyreactivity”; and “QVQLVESGGGLVQAGGSLRLICAASGLTFRVYTMGWYRQAPGQERELVASISRSGASTYYADSVKGRFTISRDNAKNTVYLQMNSLKPEDTAVYYCNAVTSWPRRDFDYWGQGTQVTVSS”, with “high polyreactivity”. Take “QVQLVESGGGLVQAGGSLRLICAASGLTSGLNAMGWYRPAPGKERELVATIRTNGGSTYYADSVKGRFTISRDNAKNNVYLQMNSLKPEDTAVYYCAADDKGGFAVEYDYWGQGTQVTVSS”: the “polyreactivity (PSR sort gate)” value was “low polyreactivity”. “QVQLVESGGGLVQAGGSLRLICAASGNIFTYYAMGWYRQAPWKERELVAAISSGDSTNYADSVKGRFTISRDNAKNTVYLQMNSLKPEDTAVYYCNVDRVPSRRYYAQKGYFRYYYWGQGTQVTVSS”: the “polyreactivity (PSR sort gate)” value is given as “high polyreactivity”.
